We go through two molecules from patent US20050107585A1 (UNIVERSITY OF KANSAS, published 2005).

The target in test [1] is T1, ICAM-1 on NOD mouse APC / spleen cells (mouse (NOD), UniProt P13597 28-537).
T1 construct: whole, on cells; Native ICAM-1 on live NOD spleen cells
Briefly: flow cytometry on live APC, blocking by mAb. How it is done: J. Immunol. 2337-2344 (1994). Spleen cell density-gradient fractions from normal (unimmunized) NOD, BALB/c and other MHC congenic strains were incubated in round bottom 96-well plates with increasing concentrations of individual biotinylated peptides at 37° C.,5% CO₂ for 16 hours. Following binding of the BPI to the APC, Avidin-FITC was incubated with the cells on ice for 30 minutes, followed bybiotinylated anti-Avidin for 1 hour, then again with Avidin-FITC. For BPI titrations, increasing concentrations (0.1-100 μM) of the biotinylated derivatives in sterile 0.5% BSA-PBS were incubated with the APC for 16 hours as above.
To test for competitive inhibition of BPI binding with unlabeled peptides or monoclonal antibodies to MHC-II and ICAM-1 on live APC, freshly isolated fractions of spleen cells were incubated with the previously biotinylated BPI. However, for this portion of the experiment, the experimental wells contained various unlabeled peptides (e.g., antigenic peptides or LFA-1 peptides), and/or monoclonal antibody (e.g., anti-MHC-II or anti-ICAM-1 mAb) inhibitors. Negative selection methods with monoclonal antibodies conjugated to magnetic particles were used to enrich the spleen cell fractions for B cells, macrophages, or dendritic cells as well as to examine differences in BPI binding to these different populations. […]
(In flow cytometry, cells or beads pass a laser one at a time.)

Test [2] concerns the target T1, ICAM-1 on NOD mouse APC / spleen cells. Briefly: co-capping, fluorescence microscopy, T-depleted spleenocytes of NOD mice given the BPI i.v. On the procedure: To test the ability of the BPI peptide to link MHC-II and ICAM-1 molecules on the APC surface, we used a modification of a co-capping experiment originally described for monoclonal antibodies. […] Antibody-bound cells are then incubated with streptavidin (37 C×15 min.) to cap the MHC-II molecules on the APC surface. The cells were transferred to ice and labeled with a fluorescent (PE) monoclonal antibody to ICAM-1 (3E2). The cells are plated and observed for evidence that a given BPI links ICAM-1 into the MHC-II cap, i.e., by standard fluorescence microscopy and image analysis.

Where no end group is shown, it is not given here. [ ]: non-standard residue; d: D form. Ahx = NCCCCCC(=O)O

T1 sequence (P13597 28-537): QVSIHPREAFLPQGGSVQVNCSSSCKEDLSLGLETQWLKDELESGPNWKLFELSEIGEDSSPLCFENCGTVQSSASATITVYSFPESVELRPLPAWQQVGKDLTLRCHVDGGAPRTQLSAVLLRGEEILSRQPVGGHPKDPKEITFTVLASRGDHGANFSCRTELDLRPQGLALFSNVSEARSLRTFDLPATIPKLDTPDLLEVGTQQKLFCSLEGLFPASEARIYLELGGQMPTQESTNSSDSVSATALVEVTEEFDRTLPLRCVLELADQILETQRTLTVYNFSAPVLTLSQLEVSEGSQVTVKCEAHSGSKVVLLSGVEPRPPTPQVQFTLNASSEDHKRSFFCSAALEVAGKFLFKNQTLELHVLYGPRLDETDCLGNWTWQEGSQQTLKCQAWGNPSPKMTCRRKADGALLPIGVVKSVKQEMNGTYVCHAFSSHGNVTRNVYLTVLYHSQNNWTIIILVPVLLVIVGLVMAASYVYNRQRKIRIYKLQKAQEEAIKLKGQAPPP

Take EIAPVFVLLE[Ahx]G[Ahx]G[Ahx]ITDGEATDSG (also: biotinylated with NHS-Biotin, site not given here, also called diabetes BPI; GAD 65 BPI) [biotinylated EGAD-BPI (GAD65(208-217)-[Ac-G-Ac-G-Ac]-CD11a (237-247))]: the binding result in test [1] is reported as “binds”. For EIAPVFVLLE[Ahx]G[Ahx]G[Ahx]ITDGEATDSG (also called diabetes BPI) [EGAD-BPI (GAD65(208-217)-[Ac-G-Ac-G-Ac]-CD11a (237-247)), unlabeled], in test [2], the binding result is listed as “binds”.
